Experiment [1] addresses HCV NS3 fragment 1190-1216 (…) (Hepatitis C virus). Put plainly: flow cytometry titration on yeast displaying the NS3 1190-1216 fragment.
Experiment [2] concerns the target HCV NS4 fragment 1692-1713 (…) (Hepatitis C virus). The experiment is described as follows: flow cytometry titration on yeast displaying the NS4 1692-1713 fragment. (In general: Flow cytometry measures light scatter and fluorescence of single cells or particles in a stream.)
Experiment [3] addresses wildtype HCV core 27-39 fragment (…) (Hepatitis C virus). The experiment is described as follows: flow cytometry titration on yeast displaying the core 27-39 fragment (apparent KD).

B1: anti-HCV NS3 chimeric antibody (HCV NS3 CHO 17-903-132sc171) (antibody, V domains shown)
VH: EVKLVESGGGLVQPGGSLKLSCATSGFTFSDYYMYWVRQTPEKRLEWAAYISNGAGSTYYPDTVKGRFTISRDNAKNTLYLQMSRLKSEDTAMYYCARGLWDGLDYWGQGTTLTVSS
VL: DVVMAQTPLSLPVSLGDQASISCRSSQSLVHSNGNTYLHWYLQRPGQSPKLLIYKVSNRFSGVPDRFSGSGSGTDFTLKISRVEAEDLGVYFCSQSTHVPYTFGGGTKLEIKR
Regarding B1, the Kd in experiment [1] was 68 nM.

B2: anti-HCV NS4 chimeric antibody (HCV NS4 CHO E99H6C34sc203) (antibody, V domains shown)
VH: QIQLVQSGPELKKPGETVKISCKASGYTFTDYSMHWVNQAPGKGLKWMGWINTETGEPTYADDFKGRFAFSLETSASTAYLQINNLKNEDTATYFCTRGGTGYWGQGTTLTVSS
VL: DVVMTQTPLSLPVSLGDQASISCRSSQSLVYSNGNTYLHWYLQKPGQSPKLLIYKVSNRFSGVPDRFSGSGSGTDFTLKISRVEAEDLGVYFCSQSTHVPWTFGGGTKLEIKR
B2 returned a Kd in experiment [2] of 0.5 nM.

B3: anti-HCV core chimeric antibody (HCV core 201-603-486-333) (antibody, V domains shown)
VH: QIQLVQSGPELQKPGKTVKISCKTSGYTFTDYPMHWVKQAPGKGLKWMGWINTETGEPTRVDDFKGRFAFSLETSASTAYLQINNLKDEDTATYFCARGGGVRRQVMDYWGQGTSVTVSS
VL: DIVMSQSPSSLAVSAGEKVTMSCKSSQSLLNSRTRKNYLVWYQQKPGQSPKLLIYWASTRDSGVPDRFTGSGSGTDFTLTISSVQAEDLAVYYCKQSYNLYTFGGGTKLEIKR
As for B3, the Kd in experiment [3] worked out at 0.7 nM.

For the origin of these results see patent US20110263436A1.
